Assay: protease stability score; higher = more stable; yeast display proteolysis, trypsin and chymotrypsin;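 note: log10 excess protease needed over predicted unfolded state with 0 meaning unfolded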

For “DDRNKHIFKKIIEAERTGDEDKLRQNFDPNARFRIGNQTYHGREHWADRVSDLRKKIRVEIKIKRVQVDGDKVVVKYQVVYNVNGRPKKDTFRVVLHFQNGKAKHRTFQIDEERKEHLDS”, the protease stability score was 0.252.

In the case of “DERQIEQLKRYLEALKTGDKEKIKELLDPNARIVYGDKEVKGRENIAEQVKKRKDDSRYDWTSVDVKTSGDKLVMTARKVNNRNGRPHERQFTADIKIKNGRMQHLQFDSTG”, the protease stability score was -0.323.

“DEKDVEKLQRLIKTGNEDHIANEADPNVQVTIGDDVIHGREEAVRQIQKWQRQVDHVEIKSMESQGEKVHVRRVLTVNGKNFEFTLQAEMHNGTLTHFDIQFRSEEDNKRFLKVVS” showed a protease stability score of 0.32.

“DEQKDDKRSKDIKKQVEKGNEHEILKLFDKDAKVRVGDKVVQGRESIKDEIHHLRRRVDNIEVKEVHAQGDKVTVDVQVDVNGVQIRQVLHIQMNNGKVTDAKVEFTNEEQLRQMHG” showed a protease stability score of 0.099.

In the case of “EDEMRKLAHKVMTAHQTGDPDRIARLMDPNVQVKVGDKTIHGKHQLKRKLTKDLKEMRVHIKSVKFSVQGDKVEVRANLVSRHNGQPHESTVDVRITARGDKLKHLNNQETQ”, the protease stability score was -0.263.

In the case of “DEERQDQAEEFWKILQTGDPDKAREELRDDVHVHVGDKVIHGMEDVDRDIERVRKQIRVEFDVRHIDSQGERISVEANIMENENGKPETAQLTVIIDMHNGRVVRIVFEKRK”, the protease stability score was 1.96.

For “DERAKEQMKNFQQAVSEGDPDQFRELMDKDARMVIGDQQLHGREKMMHQWQRLTRRIRREVKSVDVQVRGDTAELDIHFEQRKDGQPTKNSAVLEAVVHNGKVKELRVKNKR”, the protease stability score was 0.078.

“EERDMEKMDTLVRDNDWKKMKNNVDPNAQVRIGEHEYTGKQQASTAFDILQKQVDHVDIHSFKNHGDQVEVHAILRYNGQNFQVNFRFRVHNGRFKKFSVEFTSEQQNKIMEEWLG” gave a protease stability score of -0.039.

Work on “DEDDLERKDEEFQRLMKTGNFEELAQQADKDVRVQIGDKQLHGRRQIKKYQEEMQRKADHFDVKRVDIQGDTVDAVIENRHNGHHQVVRIQVNMHNGTIKEVTIHSS” yielded a protease stability score of -0.02.

“DEDDLQRKVERINSALQTNDEDEFVRQLDEDAKISVGDKTVHGQEKAREWVQDLRRTVDHIRVDHVKVHNGRAHVTMKAVVNGKNVEITMQMTLHNGKVKEMRIDPEDVEKLEG” showed a protease stability score of 0.807.

With “DEKDKARKLNDRVREVMETGDPRKFTELADPNARYIIGDKEFHGTENITKYAKTLRDQVDHVDVKVDHVNVQGNKVVADMKFTAEKNGSRLHYRMIVVAVIQGDNVNAQQVHFK” the protease stability score was 1.18.

With “DEHELREILDKANEAWKRNDPDEMVKQADKDVEVKIGDKDFHGREEAHEAMKELHDRADHISIRDYDASGNKARIHMYIVVNGRRVDFVVIIVVRNGRIQKIELNVRDEKAKSNLKQ” the protease stability score was 1.09.

For “EEQVRELLRKALEAKQEGDEKKLTKLFDPNAKVDVGDKTFHGMEDIARTIVTELKQIRVRLEIKHYSMRGDHLRVDAEVEEEHNGEPQTRRVIIYMHVQGDKITKQKIEDRQ”, the protease stability score was 1.08.

Sequence “DEEQRLKQVFDTLVKAFEDNDEDQIRDMMDPNVTVRVGDKEVHGRDEVARRVVDERRKVDHVHNDIKDYRVRGNHLVMKIDQVFNHNGETRKQTATMVVKVHDGRAVVETLHYD” has a protease stability score of 1.09.

In the case of “DEDKEDRVVKTFLTAVRTGDPHTARNMLDENARVHIGEKNFHGKERASEAIKEFRDQVDEVHIRTIKVRGDRFNIDMTLHFNGKNADLTVNVRVHNGKIQDVQFDPDQMQHLQG”, the protease stability score was 0.86.

With “DEDQNRKMEHALRKNDWTRLAEQADKDVKVHIGDKVLHGREEVLKYLKRFQENVDHIEIKRMEATGNKVTVEYDVNFDGTTLDVTFKMVVQNGTVEHMTFDFRSEEQEHEAKKAYG” the protease stability score was 0.627.

“DNDAREAARRLLDAWRTGDEDTVRDMADENAKVTVGDKTIQGRDHLVDWIHQHYHEQRVDVKSVHMDAQGDKVDVKLDAVSDRNGQPRRYVEHVKITMKNGKMKSLEMHREG” showed a protease stability score of 0.753.

Sequence “DEKAQTRVQDYLRALQNGDHKRLREYMDENVHLRVGDKEVHGRTTAANEIVKEVRNQEMSMSIKRVRASENHVQMEVVVQVEHNGKPREFSFQLNFKLENGQAKEIKYKIDPTVLKNIRK” has a protease stability score of 0.507.

Sequence “DEEELKKHAHNLMRAMQTGDPDKVEEYFDPDAEYTVGDQTYRGREDMREWFEEVRRQVDHNQINDVRNSENHVNVDFVLNHNGTNHRVKFKAEIHNGRAKRASITTG” has a protease stability score of -0.271.

“DEEVANTAVKVAQTGDFQQMVEHADPNVRAVVGDKEYHGREQFQEAMTIIRERVDHYHVDKITIEGDDVRVDMQIDFNGRRVRAEVSIRASNGRIKEMHINARDEDDHRTLRKLLK” gave a protease stability score of 0.432.

Sequence “DERLREQLNRFHKLLEKNNPEKLVEQLDPNAEFEVGDKQYHGREQIEDWQRRLAKRQRFSRDFKSIDASNGNVRATFRVVITHDGKPDDYLAVMHFQVKNGKFKRFVIKRNQ” has a protease stability score of 0.291.

Sequence “DDEKQVREVVTDFIQALEEGDEKRVRQLIDPNASADVGDRKYHGREQVAEMVREQMDQVDHIEFTLRKVEIQGEEVVVRVEVVLNHNGQEKQIHMTLIFVVKNGHLQLKEIHQD” has a protease stability score of 1.37.

“DEDQVRRVADKMFKMAVNGNKDEMKKLGKPNVEYKYLDKEYEGPDALKRVADKVKKIGAKVETQRREVKGDKVTAVFRYNDGDHTVQTTAEVQYEGDVVDRARVEITDEVKKVAHKG” showed a protease stability score of -0.093.

With “DEEEAKKNVKVWEQNDPDTFNKLVDKDAKAVIGDKEVHGRSEINRIIKRLLQQADHWQVDEVHIHNGRVHISYQFVINGQRLDVRVTIELRNGRIKDVKVHFTDDEQKKRANENVR” the protease stability score was 0.943.

Work on “EEEQLKTVKQWQENEKTGNEEELKKQADPNAKFRIGDHEVRGMENYAHDVIRRVKDARVDYETISHDVNGDRVVIRAVYRMNHNGRPSSYEYTVHYEMHNGKMKNVTVNKRQ” yielded a protease stability score of 0.041.

In the case of “DEKEMQEFAKEVVKMLQTGDERKNERNVDKDVRVKIGEKVLHGREDNSKWIQEWRDRVDHIRIDHVHVHGEKVIVTVTAVVNGVEVEFQMVMEVHNGRAENVQVKYRNPDELRRFKS”, the protease stability score was -0.263.

For “DEHAKELAKEFMEAWTKGDPDKAATLADPNVRANVGEFNVHGREDAHRAVDRFRRQMHVELDIRSMRVQGNKVQVDVSVTVTHNGRPHSNRYVVLIIFHNGRIRSVHRRREG”, the protease stability score was 0.176.

Work on “DETAMEVAERFLENINNGNPEEATKQFDPNARFIVGDKRLTGQEQVKSEIEDQKKHIDVNYDVKRVEIDGDKALLELDVQNEHNGRPRTDSAVITMEAHNGKITHMQRDHDG” yielded a protease stability score of -0.594.

Work on “DEDIRRHVKEFIEALRTGNEDQLRTLADKNVRFEYGDKEIHGRETYAKHVKKLKEESSIEIKDYKVTAQGNTVSAKIRQVVNHNGKPQHHVVILQAVFHNGKLKEMRTKDDG” yielded a protease stability score of -0.26.

Sequence “DETEHAKRLAEEFVRNVETGDESRLVELADPNAKFEVGDTTVHGMEDYAHNMHKRRNEADHFDFKVKSVHVSNGNIRVDIDYRVNHNGKVEKQRMVIYMTKHGDKYRIKKIEVS” has a protease stability score of -0.082.

In the case of “DSEAAKRAETFIRNLVQGNEDELRDMADKDVNFQVGDKTVHGREQWQEEVSRTEKEARVEMRVDDYRDEPGTVKLNAKVTIEYNGQPFTVNLHVEIHFKNGKMQRAVFEIDPEVQKEVES”, the protease stability score was 0.692.

Work on “EEHVKHIVDQLIKVLQHNDEKLWERLVDPNAEIRVGDKSIRGRERFSEEVRRQKHQARMQWKSVQVDVHGDKAVLHFSAEFQVNGQPADFDVTMHIQVHNGTVKRMFVQVPEKDVQRKTS” yielded a protease stability score of 0.459.

For “DEREARDVQHRINKNDPQSHEDQVDEDVKLQIGDTTWHGREELNDVIRRVRESADHIKYERVEVDGDTVVADVVYTINGKNIKLRLVVHVKNGRIKYMNMTATNPDDLRTLNEIIQ”, the protease stability score was 1.25.

For “DEDEARTWANRMRKIIKEGDPKKMRHQLDKDAKAQVGDDTVHGRDKVVQLLQHILEHVDHVEIQHVEAQGNEVDIQVKLTVNGRDDSLKFDIKYHNGRVKTIRVQEQ”, the protease stability score was -0.084.

With “DSDEIRKFFQQLHTNDEKKLRRNFDKDARFEVGDKDYHGQENAQEAMAQIFQRADHVTYKTVKVEGDKVDMNLQIQVNGKQFDLRLHAKFDNGRLKEASLHVTSEEQHTEVLEMLS” the protease stability score was 0.643.

Work on “DETAVRVFRKIEDAYQKGDPDKITNLLDENVEMHVGDKRVHGRETMAEHLKKQLDEIRQKIKSVTLHDKGDTIRIDVLMVEEHNGQPRESRYHVHAKIHNGKMKEREQTSVQ” yielded a protease stability score of -0.095.

In the case of “DEEDLHHLAREMKDLMQRGDHKRFEELADENARLIIGDKTVTGRTRIKDELRKWREEADHIQIHDVRASGNRINLDIRVVVNGQEHRFIVIIELKNGKVSQMEVEDS”, the protease stability score was 1.91.

For “EESLEHIVRTMLEQIRRGDPRDLKEMFPENARIEYGDRSIHGREEYAKTMEHKRRQARYHFQVKSIRNNGNKVELVMEVEDNHNGNPSTRRVKLTIVFHNGRIQNVEQTNKP”, the protease stability score was 1.03.

In the case of “DESDVKRAQDMVQNEQDGNEEEFDKLLDENVHFNVGDKRVNGRQQYLREVKKKRDQIRFSIKIDSVRARNGEATIDASARMVVNGQPKTYKFVIHVVQHNGDVRHVRISVPEEDVKRLKS”, the protease stability score was 0.212.

With “DEEKILKIIDRAVKAIQNGNEEEIRKLGMPNGEAQVGNDRNHGQDALVVMVKMYQKLGNEFEYKEKREEGDQVTTVVQVTFGGTTVEYEVNVQAEGGHIKRWEVRVDETFMKHVEKS” the protease stability score was -0.125.

For “DEKKERQRAKELVKAMQHGDESKLKELLDENARLNVGDHKFHGMEEAHKTMRELWTRVDHLTVKSVDVTNGKIDIVVVFRHNGKNDRQVLEADVHNGRVRQQQIKSE”, the protease stability score was -0.14.

Sequence “DQHVEDVARKFINAMQTGDPDRLKELFDPNARQQVGDTVVTGREHAAKKWKEWVDEMEVHVQLRSIDVRGDKATLRFKLEVRVNGKPSQQDVTMVIHMHNGRAVDVKLSIDERDKKEIDS” has a protease stability score of 1.42.

Sequence “DETDQVETLLKRFKEAVDHGDKHQARHLFRDDVRIKYGDKEIHGRDNLAHWIVDRARRADHVDFTIRQFDVRNGRVSVDVEVRYDVNGKHDHKRYTLRADLRNGRATAVTIEVR” has a protease stability score of 0.344.

Sequence “DDEVLDQVKEFLKAVKTGNDQQIKRLADKDVHFKIGDDVIDGREKVTKEWKQQHREMSVDYKKVKLQKRPNRAIVTYDVHYRHNGRPQSLKVQVRFTFDNGKLQSMSVTNSQ” has a protease stability score of -0.006.

“DDEVKKFAEKFVTNLENNNPQELKSMADPNAKFEVGNKSVHGMDEYVRQVRERNEHMRFDVKRVQIRVNGNQIIINVHLHVNVNGRPVDLSYEVDINFDNGKIKYVRLDVDEDQEKRMTG” gave a protease stability score of 1.1.

“DEEERAKNFMKQLIDVAQRGDKENAKRLFDENARVEVGDKTYRGRRRVATFLMELSERADHMEMRIQSFDISGDKFDLVLKVERHHNGRQQSFQLKVVATVRNGNLVIVHVRMG” gave a protease stability score of 2.49.

In the case of “DEEKVNERFFTKMKKAHEHGDPDQLRTLFDPNVKVRYGDKSITGRENVVKHIKKLLDEADSVSIQLKRVRVSGNKFSFDVVVSFNINGKHDNQRVIIVAEQHNGHARVKSVQQK”, the protease stability score was 0.949.

For “DEENEDIFRKYLEDLKKGDPKKLKEQFDKDAEVKVGDDVLHGRRSIARTLHEERKEMRVEIEDVKVRAHNGQLEVRFQQTVDHNGRPKTVRARMEVKFHNGRIKHLSVDERE”, the protease stability score was -0.331.

Sequence “DEVTRAEELLHEIQEAFRTGDEDQARRLADENVQIHVGDKFVRGRRDYVKRLKDEVDRVDHMEVHIKSVDVHGDKATMDYRVRVQFDGQSKERDVVMYAKISNGQLKVTSLTEK” has a protease stability score of 0.012.

“DTRTDLRVAEKAAKAFHTNDPEKFKKQADPNAKAQYGDKTVHGMEDIVTRLKKFKDRVDHLRLNDIKSTGEKVDLNIQINVNGKNVEAKIDFHVRNGRLKTMKVDPNAVDAYRS” showed a protease stability score of -0.19.
